From paper PMC10873366, “DNA binding redistributes activation domain ensemble and accessibility in pioneer factor Sox2” (Nature Communications, 2023) come the findings set out here.

The target in the assay is T1, Sox2 C-terminal intrinsically disordered region (C-IDR).
T1 chain: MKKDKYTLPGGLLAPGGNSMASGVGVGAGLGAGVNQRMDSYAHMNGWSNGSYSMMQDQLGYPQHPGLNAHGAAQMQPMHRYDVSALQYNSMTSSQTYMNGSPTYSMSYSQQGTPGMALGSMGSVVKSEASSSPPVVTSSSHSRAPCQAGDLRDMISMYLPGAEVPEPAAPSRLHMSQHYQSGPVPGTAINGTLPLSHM
Briefly: NMR titration; 15N-labelled C-IDR titrated with unlabelled N-DBD; 1H15N HSQC chemical shift changes of highly perturbed residues fitted to a 1:1 binding equation; 20 mM NaH2PO4, 50 mM NaCl, 5 mM DTT, pH 5.5, 15 °C. To be noted: both partners purified.

B1: Sox2 N-terminal domain and DBD (N-DBD) (domain or fragment)
chain: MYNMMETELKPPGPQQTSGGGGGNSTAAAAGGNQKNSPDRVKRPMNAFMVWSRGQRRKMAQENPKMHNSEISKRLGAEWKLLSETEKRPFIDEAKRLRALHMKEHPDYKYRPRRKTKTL
modifications: Limits are not printed. They are inferred from 109 expected HSQC peaks (119 residues minus 9 Pro and the N-terminal Met) and from the C-IDR starting at 120. The NMR sample was 15N(/13C)-labelled or …
Usually Kd stands for the constant that tells how readily two partners part at equilibrium. Consider B1, for which the Kd came out at 80 ± 4 µM.
